# Measurements published in paper PMC3167627.
# Target: Mcm2EE-7 S164E;S170E (Saccharomyces cerevisiae) (UniProt P29469+P24279+P30665+P29496+P53091+P38132)
# Assay: gel filtration
substance,measurement,value
M13mp19 circular ssDNA,binding signal (fold bound vs Mcm2WT-7 at 0.5 nM ssDNA),> 3
